This note sets out measurements from US20230054300A1 (PARIS SCIENCES ET LETTRES QUARTIER LATIN, published 2023).

In assay [1] the target is CLIP-PHloop protein (10xHis-CLIP-tagged glycine receptor β loop) (CLIP tag covalently bound (thioether) to the benzylcytosine at an extremity of the DNA molecule). Kind of assay: single-molecule magnetic tweezers; SNAP-gephyrin and CLIP-PHloop attached to the DNA molecule; force cycling FLF=0.01 pN for 13 s / FHF=1.1 pN for 52 s; 19.2 °C; GB buffer [continued].
CLIP-PHloop protein (10xHis-CLIP-tagged glycine receptor β loop) (CLIP tag covalently bound (thioether) to the benzylcytosine at an extremity of the DNA molecule), sequence (chain, as listed by the source limits assumed): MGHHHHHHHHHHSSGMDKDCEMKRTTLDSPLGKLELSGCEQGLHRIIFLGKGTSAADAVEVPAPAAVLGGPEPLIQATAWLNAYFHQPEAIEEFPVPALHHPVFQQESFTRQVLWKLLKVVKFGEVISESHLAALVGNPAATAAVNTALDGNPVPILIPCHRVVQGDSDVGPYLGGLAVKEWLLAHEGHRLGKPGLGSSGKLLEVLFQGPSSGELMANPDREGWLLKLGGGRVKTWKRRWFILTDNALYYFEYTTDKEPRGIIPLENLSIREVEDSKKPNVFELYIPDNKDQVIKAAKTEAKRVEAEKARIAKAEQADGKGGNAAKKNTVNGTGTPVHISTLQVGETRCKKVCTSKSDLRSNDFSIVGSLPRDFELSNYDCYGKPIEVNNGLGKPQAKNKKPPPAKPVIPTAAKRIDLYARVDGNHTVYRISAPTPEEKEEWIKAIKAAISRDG
Source text: HF corresponds to the application of a high force (“High Force”); LF corresponds to the application of a low force (“Low Force”). The test molecules can be either associated (A for “Associated”) or dissociated (D for “Dissociated”).
Assay [2] addresses T1, FKBP12 protein having the sequence of SEQ ID NO: 7, with 4-azido-L-phenylalanine at position 1, conjugated to … (Homo sapiens (Human), UniProt P62942 2-108, 4-azido-L-phenylalanine in place of methionine at position 1; the azide is click-coupled to the DBCO-dT at the 5' end of oligo-Tc (Oligo-Tc2, SEQ ID NO: 5), which is ligated to the double-stranded …).
T1 construct: In the assay it is present as the binary complex with rapamycin (500 nM)
Put plainly: magnetic tweezers, force cycling, FHF=1.4 pN, T=298 K, 500 nM rapamycin; kD=1/<τD> averaged over several molecules.

Assay [3] deals with T1, FKBP12 protein having the sequence of …. Put plainly: magnetic tweezers, force cycling, FHF=6 pN, T=303 K, 500 nM rapamycin. The source says:
(§1) At each passage at FLF=0.05 pN for time TLF=13 s, the test molecules associate, then, after passage at FHF=1.4 pN, they separate after a time indicated as t_HF-A. The high force is applied for time THF=155 s. […] C) Temporal monitoring of the extension of the double-stranded DNA molecule when the force is cycled between high value and low value (TS: schematic diagram of the FHF/FLF cycles). At each passage at FLF=0.05 pN for time TLF=14 s the test molecules associate and then, after passage at FHF=6 pN, they separate after a time indicated as t_HF-A. The high force is applied for time THF=125 s. […] The curves are provided for several temperatures: OT=29.1° C.; […]T=25.4° C.; ⋄ T=21.7° C.; x T=19.2° C. […] F) Variation of XD, the distance separating the transition state from the complex during dissociation, as a function of temperature. […] A linear fit in agreement with the Arrhenius-Bell model, ln[kD⁰]=A−ED/kBT, makes it possible to determine ED, the activation energy of the dissociation reaction.
(§2) Example 10 was performed either at 25° C. or at 30° C. in DB reaction buffer (20 mM K-Hepes pH 7.8, 100 mM KCl, 5 mM MgCl₂, 2 mM DTT, 0.1% Tween-20, 0.1 mg/ml BSA). Measurements were also performed at 19.2° C., 21.7° C., 25.4° C. and 29.1° C. (see FIG. 15E).

Assay [4] shares this target. Put plainly: derived as kA=kD/KD; magnetic tweezers, FCF=0.04 pN, 25 °C, 500 nM rapamycin; derived as kA=kD/KD. As for the experimental part: as §2
(§3) Said fraction of time spent by the test molecules in associated form is determined according to (Σt_{CF-A})/tₜₒₜₐₗ, where tₜₒₜₐₗ is the total time during which the fluctuations are recorded and analyzed.

For assay [5] the target is unchanged. Put plainly: magnetic tweezers, spontaneous fluctuations at FCF=0.04 pN, 25 °C, 500 nM rapamycin, with 0-200 nM free FRB in solution; average over concentrations; 0-200 nM free FRB in solution; averaged over concentrations. The procedure:
as §2, §3

Assay [6] has the same target. Put plainly: magnetic tweezers, spontaneous fluctuations at constant force FCF=0.04 pN, 25 °C, 500 nM rapamycin; average over several DNA molecules and inversion; no free FRB in solution; FCF=0.04 pN, 25 C. As for the experimental part: as §2
For assay [7] the target is unchanged. Kind of assay: magnetic tweezers, force cycling, FHF=1.4 pN, T=303 K, 500 nM rapamycin.
Source text: as §1, §2

T1 sequence (P62942 other isoform, or with tags, fused parts or gaps limits assumed): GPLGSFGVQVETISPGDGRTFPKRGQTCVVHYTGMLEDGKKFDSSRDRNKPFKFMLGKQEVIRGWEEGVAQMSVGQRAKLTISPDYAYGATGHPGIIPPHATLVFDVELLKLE

B1: SNAP-gephyrin rC4 (other)
chain: MRGSHHHHHHGSACELSSGLEVLFQGPHMASMDKDCEMKRTTLDSPLGKLELSGCEQGLHEIKLLGKGTSAADAVEVPAPAAVLGGPEPLMQATAWLNAYFHQPEAIEEFPVPALHHPVFQQESFTRQVLWKLLKVVKFGEVISYQQLAALAGNPAATAAVKTALSGNPVPILIPCHRVVSSSGAVGGYEGGLAVKEWLLAHEGHRLGKPGLGSSGGTMATEGMILTNHDHQIRVGVLTVSDSCFRNLAEDRSGINLKDLVQDPSLLGGTISAYKIVPDEIEEIKETLIDWCDEKELNLILTTGGTGFAPRDVTPEATKEVIEREAPGMALAMLMGSLNVTPLGMLSRPVCGIRGKTLIINLPGSKKGSQECFQFILPALPHAIDLLRDAIVKVKEVHDELEDLPSPPPPLSPPPTTSPHKQTEDKGVQCEEEEEEKKDSGVASTEDSSSSHITAAALAAKIPDSIISRGVQVLPRDTASLSTTPSESPRAQATSRLSTASCPTPKARLPSCSSTYSVSEVQSRCSSKENILRASHSAVDITKVARRHRMSPFPLTSMDKAFITVLEMTPVLGTEIINYRDGMGRVLAQDVYAKDNLPPFPASVKDGYAVRAADGPGDRFIIGESQAGEQPTQTVMPGQVMRVTTGAPIPCGADAVVQVEDTELIRESDDGTEELEVRILVQARPGQDIRPIGHDIKRGECVLAKGTHMGPSEIGLLATVGVTEVEVNKFPVVAVMSTGNELLNPEDDLLPGKIRDSNRSTLLATIQEHGYPTINLGIVGDNPDDLLNALNEGISRADVIITSGGVSMGEKDYLKQVLDIDLHAQIHFGRVFMKPGLPTTFATLDIDGVRKIIFALPGNPVSAVVTCNLFVVPALRKMQGILDPRPTIIKARLSCDVKLDPRPEYHRCILTWHHQEPLPWAQSTGNQMSSRLMSMRSANGLLMLPPKTEQYVELHKGEVVDVMVIGRL
modifications: SNAP tag covalently bound (thioether) to the benzylguanine at an extremity of the DNA molecule
notes: also called Gephyrin construct rC4
For B1, in assay [1], the binding result is given as “binds”.

B2: FRB protein (FRB subunit of the mTOR protein complex) having the sequence of SEQ ID NO: 6, with 4-azido-L-phenylalanine at position 2,020, conjugated to an … (other)
chain: GPLGSFILWHEMWHEGLEEASRLYFGERNVKGMFEVLEPLHAMMERGPQTLKETSFNQAYGRDLMEAQEWCRKYMKSGNVKDLTQAWDLYYHVFRRISKQLPQL
modifications: 4-azido-L-phenylalanine in place of alanine at position 2,020; the azide is click-coupled to the DBCO-dT at the 5' end of oligo-Tc (Oligo-Tc1, SEQ ID NO: 4), which is ligated to the double-stranded DNA molecule
notes: Free FRB added in solution (0-200 nM) is described as identical to the test molecule
Take B2: the koff in assay [2] stood at 0.0322 s⁻¹; in assay [3], 0.0649 s⁻¹; in assay [5], 0.0327 s⁻¹; in assay [6], 0.0341 s⁻¹; in assay [7] it was 0.0484 s⁻¹. Besides, the on-rate (kon) in assay [4] worked out at 4.5e+06 M⁻¹ s⁻¹.

As usually defined, the koff is a measure of how fast the partners let go of each other. A low value points to a long-lived complex. What is called kon is the second-order rate constant of association. A lower kon goes with slow association.
